Reference: PMC5411712

T1: SRF (rSRF) (UniProt P11831 1-508)
T1 sequence: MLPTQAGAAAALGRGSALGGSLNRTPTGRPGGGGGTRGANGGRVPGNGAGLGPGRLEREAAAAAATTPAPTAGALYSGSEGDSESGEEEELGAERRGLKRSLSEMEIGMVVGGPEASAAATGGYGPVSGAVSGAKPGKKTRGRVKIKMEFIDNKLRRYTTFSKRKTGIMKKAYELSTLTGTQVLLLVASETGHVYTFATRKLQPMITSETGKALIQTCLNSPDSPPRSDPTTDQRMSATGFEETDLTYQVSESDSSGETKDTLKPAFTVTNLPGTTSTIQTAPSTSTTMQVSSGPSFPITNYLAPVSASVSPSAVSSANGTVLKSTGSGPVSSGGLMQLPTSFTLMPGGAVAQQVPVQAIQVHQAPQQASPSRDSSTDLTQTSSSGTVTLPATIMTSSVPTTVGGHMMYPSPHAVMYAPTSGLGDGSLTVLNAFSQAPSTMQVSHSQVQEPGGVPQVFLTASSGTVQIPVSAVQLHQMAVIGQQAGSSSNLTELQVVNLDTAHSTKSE

B1: CArG B 20-bp probe (Acta2) (dsDNA)
DNA 1: GAGGTCCCTATATGGTTGTG
DNA 2: CACAACCATATAGGGACCTC
B2: CArG A+B 95-bp probe (Acta2) (dsDNA)
DNA 1: AATTCTGGGGTGTATCTTGCCCTATATGGGATATCGCTCTGACCGTTAACTAGGACTAGCTGAGGGTAGCCTTGTTTGGCTGCATCTGTTTCTTTTCGGCTAGC
DNA 2: GCTAGCCGAAAAGAAACAGATGCAGCCAAACAAGGCTACCCTCAGCTAGTCCTAGTTAACGGTCAGAGCGATATCCCATATAGGGCAAGATACACCCCAGAATT

How the values were obtained:
[1] = target: T1, SRF (rSRF); experiment: EMSA; 10 mM Tris pH 8.0, 1 mM EDTA, 8% glycerol, 10 ul, ~150 ng fluorescein-labelled DNA, 1 h at room temperature; 4-20% Tris-glycine native gel, pH 8.3
[2] = target: T2, SRF (rSRF);PTEN (rPTEN) (;, UniProt P11831;P60484 1-508;1-403, |); experiment: EMSA; lower mobility complex on adding rPTEN; 10 mM Tris pH 8.0, 1 mM EDTA, 8% glycerol, 10 ul, ~150 ng fluorescein-labelled DNA, 1 h at room temperature; 4-20% Tris-glycine native gel, pH 8.3
[3] = target: PTEN (rPTEN) (UniProt P60484 1-403); experiment: EMSA; rPTEN alone; 10 mM Tris pH 8.0, 1 mM EDTA, 8% glycerol, 10 ul, ~150 ng fluorescein-labelled DNA, 1 h at room temperature; 4-20% Tris-glycine native gel, pH 8.3
[4] = target: T1, SRF (rSRF); experiment: EMSA; two bands at 1 ul rSRF; single lower mobility band at saturating 3 ul; 10 mM Tris pH 8.0, 1 mM EDTA, 8% glycerol, 10 ul, ~150 ng fluorescein-labelled DNA, 1 h at room temperature; 4-20% Tris-glycine native gel, pH 8.3
[5] = target: T2, SRF (rSRF);PTEN (rPTEN); experiment: EMSA, supershift and western blot of EMSA; higher mobility complex than rSRF alone; supershifted by PTEN or SRF antibody; 10 mM Tris pH 8.0, 1 mM EDTA, 8% glycerol, 10 ul, ~150 ng fluorescein-labelled DNA, 1 h at room temperature; 4-20% Tris-glycine native gel, pH 8.3

Binder | binding result [1] | binding result [2] | binding result [3] | binding result [4] | binding result [5]
B1 | binds | binds | – | – | –
B2 | – | – | no binding | binds | binds
